Data as given in patent KR20210116113A.

Experiments:
c-Myc 펩타이드 (…) [1] = target: T1, c-Myc 펩타이드 (…); test: ELISA, c-Myc peptide coated at 2 ug/ml, scFv at 0.5 ug/ml (replicate), anti-HA peroxidase detection
T1 sequence (peptide): MPLNVSFTSRNYDLD

c-Myc 펩타이드 (…) [2] = target: T1, c-Myc 펩타이드 (…); test: ELISA, c-Myc peptide coated at 2 ug/ml, scFv at 0.5 ug/ml, anti-HA peroxidase detection
c-Myc 펩타이드 (…) [3] = target: T1, c-Myc 펩타이드 (…); test: ELISA, c-Myc peptide coated at 2 ug/ml, scFv at 1 ug/ml, anti-HA peroxidase detection
c-Myc 펩타이드 (…) [4] = target: T1, c-Myc 펩타이드 (…); test: ELISA, c-Myc peptide coated at 2 ug/ml, scFv at 2 ug/ml, anti-HA peroxidase detection
c-Myc 펩타이드 (…) [5] = target: T1, c-Myc 펩타이드 (…); test: ELISA, c-Myc peptide coated at 2 ug/ml, scFv at 1 ug/ml (replicate), anti-HA peroxidase detection
c-Myc 펩타이드 (…) [6] = target: T1, c-Myc 펩타이드 (…); test: ELISA, c-Myc peptide coated at 2 ug/ml, scFv at 4 ug/ml, anti-HA peroxidase detection
c-Myc 펩타이드 (…) [7] = target: T1, c-Myc 펩타이드 (…); test: ELISA, c-Myc peptide coated at 2 ug/ml, scFv at 2 ug/ml (replicate), anti-HA peroxidase detection
c-Myc 펩타이드 (…) [8] = target: T1, c-Myc 펩타이드 (…); test: ELISA, c-Myc peptide coated at 2 ug/ml, scFv at 4 ug/ml (replicate), anti-HA peroxidase detection

B1: clone 1D1 항체 (scFv, anti-c-Myc-tag 1D1) (scFv)
scFv: LTQPSSVSANLGETQDHCSGGGSNSAYGWFQQKSPGSAPVTLIYDNTNRPSNIPSRFSGSKSGSTATLTITGVQADDEAVYYCGSAGSSYVGIFGAGTTLTVLGQSSRSSSGGGSSGGGGSAVTLDESGGGLQTPGGGLSLVCKGSGFTFSSYQMNWIRQAPGKGLEFVAAINRFGNRTGYGAAVKGRATISRGDGQSTVRLQLNNLRAEDTATYYCAKAAYGYCGSGGWRDVAGTDAWGHGTEVIVSSTS
What does the source list for B1?
absorbance at 450 nm (antigen(peptide) coating) (c-Myc 펩타이드 (…) [1]): 0.431 OD 450nm; delta (absorbance at 450 nm minus background control) (c-Myc 펩타이드 (…) [1]): 0.379 OD 450nm; absorbance at 450 nm (antigen(peptide) coating) (c-Myc 펩타이드 (…) [2]): 0.415 OD 450nm; delta (absorbance at 450 nm minus background control) (c-Myc 펩타이드 (…) [2]): 0.363 OD 450nm; absorbance at 450 nm (antigen(peptide) coating) (c-Myc 펩타이드 (…) [3]): 0.808 OD 450nm; delta (absorbance at 450 nm minus background control) (c-Myc 펩타이드 (…) [3]): 0.756 OD 450nm; absorbance at 450 nm (antigen(peptide) coating) (c-Myc 펩타이드 (…) [4]): 1.31 OD 450nm; delta (absorbance at 450 nm minus background control) (c-Myc 펩타이드 (…) [4]): 1.26 OD 450nm; absorbance at 450 nm (antigen(peptide) coating) (c-Myc 펩타이드 (…) [5]): 0.788 OD 450nm; delta (absorbance at 450 nm minus background control) (c-Myc 펩타이드 (…) [5]): 0.735 OD 450nm; absorbance at 450 nm (antigen(peptide) coating) (c-Myc 펩타이드 (…) [6]): 2.15 OD 450nm; delta (absorbance at 450 nm minus background control) (c-Myc 펩타이드 (…) [6]): 2.1 OD 450nm; absorbance at 450 nm (antigen(peptide) coating) (c-Myc 펩타이드 (…) [7]): 1.3 OD 450nm; delta (absorbance at 450 nm minus background control) (c-Myc 펩타이드 (…) [7]): 1.25 OD 450nm; absorbance at 450 nm (antigen(peptide) coating) (c-Myc 펩타이드 (…) [8]): 2.17 OD 450nm; delta (absorbance at 450 nm minus background control) (c-Myc 펩타이드 (…) [8]): 2.11 OD 450nm
